Assay results taken from patent US6177078A (Medvet Science Pty Limited, priority 1995, dated 2001).

What was measured:
IL-3Rα chain = biological target: T1, IL-3Rα chain (Homo sapiens, UniProt P26951); test: Competition for 125I-7G3 binding to F6 cells by IL-3 or GM-CSF; conditions: F6 cells expressing IL-3Rα chain alone, preincubated, 1 nM 125I-7G3
T1 construct: expressed in transfected cells
T1 sequence (P26951 19-378): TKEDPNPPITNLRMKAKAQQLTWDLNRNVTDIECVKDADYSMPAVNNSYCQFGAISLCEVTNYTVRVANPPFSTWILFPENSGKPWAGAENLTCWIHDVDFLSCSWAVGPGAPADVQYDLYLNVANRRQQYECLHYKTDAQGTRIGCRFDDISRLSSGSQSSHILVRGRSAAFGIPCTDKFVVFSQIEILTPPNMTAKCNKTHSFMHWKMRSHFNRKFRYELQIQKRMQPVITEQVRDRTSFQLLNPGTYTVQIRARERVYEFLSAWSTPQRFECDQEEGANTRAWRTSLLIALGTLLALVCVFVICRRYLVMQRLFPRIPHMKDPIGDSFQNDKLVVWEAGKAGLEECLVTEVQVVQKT
Procedure: (§1) The binding curve was analysed by Scatchard transformation.^31 In competition binding experiments F6 cells or COS cells co-expressing IL-3R α and β chains were preincubated for 2 hours at 4° C. with a range of concentrations of IL-3 or GM-CSF before adding 1 nM of ^125 I-7G3 for a further 2 hours.

IL-3R α and β chains = biological target: T2, IL-3R α and β chains (Homo sapiens, UniProt P26951); test: Competition for 125I-7G3 binding to COS cells expressing IL-3R α and β chains by IL-3 or GM-CSF; conditions: COS cells transfected with IL-3Rα and β chain, preincubated, 1 nM 125I-7G3
T2 construct: expressed in transfected cells; host or cells: COS (monkey fibroblast) cells, transient co-transfection
T2 sequence (P26951 19-378): T1 sequence (P26951 19-378)
Procedure: as §1

## GM-CSF: GM-CSF, a gift from Genetics Institute
IL-3Rα chain
  inhibition of 125I-7G3 binding to the IL-3R: not
IL-3R α and β chains
  inhibition of 125I-7G3 binding to the IL-3R: not
